Data from paper doi:10.1101/2024.07.12.603331.

Target: soluble extracellular domain of human DPP4 (residues S39-P766) (human), P27487
Test: SEC-MALS
Conditions: remark: other sources report otherwise

B1: soluble extracellular domain of human DPP4 (residues S39-P766), P27487 39-766 (domain or fragment)
chain: SRKTYTLTDYLKNTYRLKLYSLRWISDHEYLYKQENNILVFNAEYGNSSVFLENSTFDEFGHSINDYSISPDGQFILLEYNYVKQWRHSYTASYDIYDLNKRQLITEERIPNNTQWVTWSPVGHKLAYVWNNDIYVKIEPNLPSYRITWTGKEDIIYNGITDWVYEEEVFSAYSALWWSPNGTFLAYAQFNDTEVPLIEYSFYSDESLQYPKTVRVPYPKAGAVNPTVKFFVVNTDSLSSVTNATSIQITAPASMLIGDHYLCDVTWATQERISLQWLRRIQNYSVMDICDYDESSGRWNCLVARQHIEMSTTGWVGRFRPSEPHFTLDGNSFYKIISNEEGYRHICYFQIDKKDCTFITKGTWEVIGIEALTSDYLYYISNEYKGMPGGRNLYKIQLSDYTKVTCLSCELNPERCQYYSVSFSKEAKYYQLRCSGPGLPLYTLHSSVNDKGLRVLEDNSALDKMLQNVQMPSKKLDFIILNETKFWYQMILPPHFDKSKKYPLLLDVYAGPCSQKADTVFRLNWATYLASTENIIVASFDGRGSGYQGDKIMHAINRRLGTFEVEDQIEAARQFSKMGFVDNKRIAIWGWSYGGYVTSMVLGSGSGVFKCGIAVAPVSRWEYYDSVYTERYMGLPTPEDNLDHYRNSTVMSRAENFKQVEYLLIHGTADDNVHFQQSAQISKALVDVGVDFQAMWYTDEDHGIASSTAHQHIYTHMSHFIKQCFSLP
stoichiometry N: 2
